In patent publication US20160145322A1 (CRUCELL HOLLAND B V, published 2016):
Positions count from the first letter of the chain named.

T1: Sym-1706 (RSV G central conserved domain (CCD) peptide, type A 145-184) (Respiratory syncytial virus type A, N-terminal biotin)
T1 construct: Synthetic peptide, C-terminally truncated against Sym-1705
T1 peptide: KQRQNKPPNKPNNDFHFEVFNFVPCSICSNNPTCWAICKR

T2: Sym-1705 (RSV-G type A central region peptide 145-201) (Respiratory syncytial virus type A, not fully specified; N-terminal biotin)
T2 construct: Synthetic peptide
T2 peptide: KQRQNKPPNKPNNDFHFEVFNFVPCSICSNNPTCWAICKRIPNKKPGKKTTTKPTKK

T3: Sym-1789 (RSV-G type B central region peptide 145-184) (Respiratory syncytial virus type B, N-terminal biotin)
T3 construct: Synthetic peptide, C-terminally truncated against Sym-1788
T3 peptide: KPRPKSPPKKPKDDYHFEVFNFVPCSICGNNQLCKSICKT

B1: CB017.3L (antibody, V domains shown)
VH: QVQLVESGGGVVQPGGSLRLSCEASGFMFSVYAIHWVRQAPGKGLEWVAVIWHDGSNKYYADSVKGRFTISRDNSKDTMYLQMKTLRVDDTAVYYCARDPIVGSKTDGMDVWGQGTTVTVSS
VL: SYELTQPPSVSVSPGQTARITCSGDALADQYAYWYQQKPGQAPVMVIFKDNERPSGIPERFSGSSSGTTVTLTVSGVQSEDEADYYCQSVDSSGTYWMFGGGTKLTVL
notes: Tested as human IgG expressed in 293-F cells from the pCP9-lambda vector
B2: CB076.2L (antibody, V domains shown)
VH: QVQLVQSGAEVKKPGSSVKVSCKTSGDTFSNYVVSWVRQAPGQGLEWMGGIIPMFGTTNYAQRFQGRVTISADESTSTAYMEMSSLKSEDTAVYYCARDRYYEVRAGGKVLNTYYYMDVWGKGTTVTVSS
VL: SSELTQDPAVSVALGHTVRITCQGDSLRSYYTNWYQQKPGQAPVLVIFGEDNRPSGIPDRFSGSSSGDTASLTITGTQAEDEADYYCNSRDSSGNLWVFGGGTKLTVL
notes: Tested as human IgG from the pCP9-lambda vector
B3: CB073.1L (antibody, V domains shown)
VH: QVQLVESGGGVVQPGRSLRLSCAASGFTFYNYAVHWVRQAPGKGLEWVAVISHDGVNKDYADSVKGRITLSRDNSKNTVYLQLNSLRPEDTAVYYCARDRSYYFGGSVFHLYFDYWGQGTLVTVSS
VL: QSVLTQPPSVSGAPGQRVIISCTGSSSNIGAGHDVHWYQQLPGTAPRLLIYANTNRPSGVPDRFSASKSGNSASLVITGLQAEDEADYFCQSHDSSLSGVLFGGGTKLTVL
notes: as for B2
B4: CB047.1 (antibody, V domains shown)
VH: EVQLVESGGGLVQPGGSLRLSCAASGFSFSNYAMSWVRQAPGKGLEWVSDISGSGNSTNFADSVKGRFTISRDNSKNTLYLQMSSLRAEDTAVYYCAKFRVPTYCVNGICYQGLPGFDIWGQGTMVTVSS
VL: DIQMTQSPSSLSASVGDRVTITCQASQDISDYLNWYQQKPGKAPKLLIYDASNLETGVPSRFSASGSGTDFTFTISSLQPEDIATYYCQHYHNLPPLFGGGTKVEIK
notes: Tested as human IgG from the pCP9-kappa vector
B5: CB047.2 (antibody, V domains shown)
VH: B4 VH with S28N, G53S, N56K, S57T, F60S, Y80F, E89D
VL: B4 VL with I83F
notes: as for B4
B6: CB071.1L (antibody, V domains shown)
VH: QVQLVQSGAEVKKPGSSVRVSCKASGGTFSRYVITWVRQAPGQGLEWMGGSIPIIDTSTYAQKFQDRVTITADKSTSTVYLELSSLRPEDTAIYYCAKVFFFSNSSGPPTEGPAFDVWGQGTMVTVSS
VL: SYELTQPPSVSVSPGQTASITCSGHELGDKYVSWYQQKPGQSPVLLIYQDTNRPAGIPERFSGSNSGSTAFLTISATQAMDEADYYCQAWDNSHVVFGGGTKLTVL
notes: as for B2
B7: CB072.1L (antibody, V domains shown)
VH: QLQLQESGPGLVKPSETLSLTCTVSGGSISSNIHYWAWIRQTPGKGLEWIGYMFYGGVAFYNPSLKSRVAISVDTSKNQFSLRLTSASAADTAVYYCARVLVASTNWFDPWGQGTLVTVSS
VL: SYVLTQPPSVSVAPGGTARITCGGDNIGTKGVHWYQQKPGQAPVLVMYYNSDRPTGVPERFSGSNSGNTATLTISRLEAGDEADYYCHVWDSSGSDHVEVFGGGTKLTVL
notes: Tested as human IgG from the pCP9-lambda vector; also called CB072.IL

Tests used:
[1] = target: G protein of RSV B/18537 (ATCC Cat. No. VR-1580), on virus (Respiratory syncytial virus B/18537); assay: cell-based or functional assay
[2] = target: T1, Sym-1706 (RSV G central conserved …); assay: ELISA, biotinylated peptide on avidin plate
[3] = target: T2, Sym-1705 (RSV-G type A central region …); assay: ELISA, biotinylated peptide on avidin plate
[4] = target: T3, Sym-1789 (RSV-G type B central region …); assay: ELISA, biotinylated peptide on avidin plate

Binder	Neutralization IC50 (ng/mL), plaque reduction assay, RSV B/18537 [1]	binding result [2]	binding result [3]	binding result [4]
B1	2 ng/mL	binds	binds	–
B2	5.6 ng/mL	binds	binds	binds
B3	2.9 ng/mL	binds	binds	binds
B4	4.7 ng/mL	binds	binds	binds
B5	8.9 ng/mL	binds	binds	binds
B6	5.4 ng/mL	binds	binds	binds
B7	2.7 ng/mL	binds	binds	binds
